T1: human CD73 expressed on the cell surface (human, UniProt P21589 27-549)
T1 construct: whole, on cells; also called surface CD73
T1 sequence (looked up): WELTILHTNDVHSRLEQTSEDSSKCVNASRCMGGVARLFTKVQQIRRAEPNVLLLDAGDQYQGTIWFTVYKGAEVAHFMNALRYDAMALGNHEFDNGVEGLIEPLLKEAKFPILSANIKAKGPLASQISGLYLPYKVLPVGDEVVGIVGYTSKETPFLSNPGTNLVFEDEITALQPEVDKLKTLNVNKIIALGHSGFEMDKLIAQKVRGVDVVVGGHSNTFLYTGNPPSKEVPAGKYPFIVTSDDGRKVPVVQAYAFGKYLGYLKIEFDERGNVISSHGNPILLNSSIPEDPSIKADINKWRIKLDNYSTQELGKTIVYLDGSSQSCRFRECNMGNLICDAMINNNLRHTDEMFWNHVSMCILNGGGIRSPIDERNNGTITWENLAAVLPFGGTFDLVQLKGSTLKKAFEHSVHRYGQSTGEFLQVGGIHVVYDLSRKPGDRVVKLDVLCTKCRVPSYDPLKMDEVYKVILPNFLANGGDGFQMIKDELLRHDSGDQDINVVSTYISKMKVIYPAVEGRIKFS


What follows are binders tested against T1, human CD73 expressed on the cell surface (assay: flow cytometry, biotinylated antibody on CD8+ T cells in human whole blood, streptavidin-APC detection).
Description: Whole blood target engagement was assessed by flow cytometry using whole blood from healthy human donors. Briefly, biotinylated antibodies were incubated with whole blood for 30 minutes prior to red blood cell lysis and fixation. Fixed cells were stained for CD3 and CD8 to identify CD8+ T cells, and streptavidin-APC to detect biotin. After staining, the cell were washed and subjected to flow cytometry analysis.

| EC50 (read off the curve) [ng/mL] | Binder |
| --- | --- |
| ~5 | 377.B (antibody, IgG4, V domains shown, IgG4 S228P/L235E format (.B construct); Biotinylated in the whole blood assay) VH: EVQLLESGGGLVQPGGSLRLSCAASGFTFKSYAMSWVRQAPGKGLEWVSAISGSGSYTYYADSVKGRFTISRDNSKNTLYLQMNSLRAEDTAVYYCARGGLYGSGSYLSDFDLWGRGTLVTVSS VL: EIVLTQSPATLSVSPGERATLSCRASQSVGSNLAWYQQKPGQAPRLLIYGASTRATGIPARFSGSGSGTEFTLTISSLQSEDFAVYYCQQHNAFPYTFGGGTKVEIK |
| ~6 | 379.B (antibody, human IgG4 S228P, kappa, V domains shown, IgG4 S228P/L235E format; Heavy chain entry ends in X, wherein X is K or absent; Biotinylated in the whole blood assay) VH: EVQLLESGGGLVQPGGSLRLSCAASGFTFSRYAMSWVRQAPGKGLEWVSSISGTGGSTYYADSVKGRFTISRDNSKNTLYLQMNSLRAEDTAVYYCARGGLYGSGSYLSDFDLWGRGTLVTVSS VL: EIVLTQSPATLSVSPGERATLSCRASQSVGSNLAWYQQKPGQAPRLLIYGASTRATGIPARFSGSGSGTEFTLTISSLQSEDFAVYYCQQHNAFPYTFGGGTKVEIKR |

More lines, now with the values behind:

| Binder | EC50 (read off the curve) [ng/mL] |
| --- | --- |
| 374.B (antibody, human IgG4 S228P, kappa, V domains shown, IgG4 S228P/L235E format; Heavy chain entry ends in X, wherein X is K or absent; Biotinylated in the whole blood assay) VH: EVQLLESGGGLVQPGGSLRLSCAASGFTFSYNAMSWVRQAPGKGLEWVSSISGTGGSTYYADSVKGRFTISRDNSKNTLYLQMNSLRAEDTAVYYCARGGLYGSGSYLSDFDLWGRGTLVTVSS VL: EIVLTQSPATLSVSPGERATLSCRASQSVGSNLAWYQQKPGQAPRLLIYGASTRATGIPARFSGSGSGTEFTLTISSLQSEDFAVYYCQQHNAFPYTFGGGTKVEIKR | ~6 |
| 356.B (antibody, human IgG4 S228P, kappa, V domains shown, IgG4 S228P/L235E format; Heavy chain entry ends in X, wherein X is K or absent; Biotinylated in the whole blood assay) VH: QVQLQESGPGLVKPSETLSLTCTVSGGSIEGRYWSWIRQPPGKGLEWIGYIYGSGSTKYNPSLKSRVTISVDTSKNQFSLKLSSVTAADTAVYYCARESQESPYNNWFDPWGQGTLVTVSS VL: DIQMTQSPSSVSASVGDRVTITCRASQGISSWLAWYQQKPGKAPKLLIYAASSLQSGVPSRFSGSGSGTDFTLTISSLQPEDFATYYCQQGNSFPRTFGGGTKVEIKR | ~5 |
| 358.B (antibody, human IgG4 S228P, kappa, V domains shown, IgG4 S228P/L235E format; Heavy chain entry ends in X, wherein X is K or absent; Biotinylated in the whole blood assay) VH: QVQLQESGPGLVKPSETLSLTCTVSGGSISGRYWSWIRQPPGKGLEWIGYIYGTGSTNYNPSLKSRVTISVDTSKNQFSLKLSSVTAADTAVYYCARESQESPYNNWFDPWGQGTLVTVSS VL: DIQMTQSPSSVSASVGDRVTITCRASQGISSWLAWYQQKPGKAPKLLIYAASSLQSGVPSRFSGSGSGTDFTLTISSLQPEDFATYYCQQGNSFPRTFGGGTKVEIKR | ~4 |
| 350.B (antibody, human IgG4 S228P, kappa, IgG4 S228P/L235E format; Heavy chain entry ends in X, wherein X is K or absent; Biotinylated in the whole blood assay) heavy: not shown light: DIQMTQSPSSVSASVGDRVTITCRASQGISSWLAWYQQKPGKAPKLLIYAASSLQSGVPSRFSGSGSGTDFTLTISSLQPEDFATYYCQQGNSFPRTFGGGTKVEIKRTVAAPSVFIFPPSDEQLKSGTASVVCLLNNFYPREAKVQWKVDNALQSGNSQESVTEQDSKDSTYSLSSTLTLSKADYEKHKVYACEVTHQGLSSPVTKSFNRGEC | ~5 |
